B1: Pembrolizumab (antibody, human IgG4 S228P, kappa)
heavy: not shown
light: EIVLTQSPATLSLSPGERATLSCRASKGVSTSGYSYLHWYQQKPGQAPRLLIYLASYLESGVPARFSGSGSGTDFTLTISSLEPEDFAVYYCQHSRDLPLTFGGGTKVEIKRTVAAPSVFIFPPSDEQLKSGTASVVCLLNNFYPREAKVQWKVDNALQSGNSQESVTEQDSKDSTYSLSSTLTLSKADYEKHKVYACEVTHQGLSSPVTKSFNRGEC
notes: also called Lambrolizumab
B2: Composition K (antibody)
VH: QVQLVQSGAEVKKPGASVKVSCKASGYTFTSYYMYWVRQAPGQGLEWMGGVNPSNGGTNFNEKFKSRVTITADKSTSTAYMELSSLRSEDTAVYYCARRDYRYDMGFDYWGQGTTVTVSS
VL: EIVLTQSPATLSLSPGERATISCRASKGVSTSGYSYLHWYQQKPGQAPRLLIYLASYLESGVPARFSGSGSGTDFTLTISSLEPEDFATYYCQHSRELPLTFGTGTKVEIK
chain: APTSSSTKKTQLQLEHLLLDLQXILNGINNYKNPKLTRXLXYKFYXPKKATELKHLQCLEEELKPLEEVLXLAQSKNFHLRPRDLISNINVIVLELKGSETTFXCEYADETATIVEFLNRWITFSQSIISTLT
modifications: not fully specified; Composition AB: Nle at 23, 39, 46; Hse at 41, 71, 104; ~0.5 kDa PEG on Y45; 0.5 kDa PEG capped with azide on F42Y, reacted with DBCO on K288 (EU numbering) of the antibody's Fc region
notes: Immunocytokine; linker at K288 of the Fc region
B3: Composition H (antibody)
VH: B2 VH
VL: B2 VL
chain: B2 chain
modifications: not fully specified; Composition AB: Nle at 23, 39, 46; Hse at 41, 71, 104; ~0.5 kDa PEG on Y45; 0.5 kDa PEG capped with azide on F42Y, reacted with DBCO on K248 (EU numbering) of the antibody's Fc region
notes: Immunocytokine; linker at K248 of the Fc region, DAR 1; also called LZM-009 conjugated to Composition AB, DAR 1, K248
B4: Composition J (antibody)
VH: B2 VH
VL: B2 VL
chain: B2 chain
modifications: not fully specified; Composition AB: Nle at 23, 39, 46; Hse at 41, 71, 104; ~0.5 kDa PEG on Y45; 0.5 kDa PEG capped with azide on F42Y, reacted with DBCO on K288 (EU numbering) of the antibody's Fc region
notes: Immunocytokine; linker at K288 of the Fc region, DAR 1; also called LZM-009 conjugated to Composition AB, DAR 1, K288
B5: LZM-009 (antibody, V domains shown)
VH: B2 VH
VL: B2 VL

Assays:
[1] = molecular target: T1, recombinant biotinylated human FcRn (human, UniProt P55899 24-297, limits assumed, biotinylated); test: AlphaLISA competition at pH 6; test molecule competes with human IgG acceptor beads for biotinylated human FcRn
T1 construct: also called human neonatal Fc receptor
T1 sequence (P55899 24-297 limits assumed, form in doubt): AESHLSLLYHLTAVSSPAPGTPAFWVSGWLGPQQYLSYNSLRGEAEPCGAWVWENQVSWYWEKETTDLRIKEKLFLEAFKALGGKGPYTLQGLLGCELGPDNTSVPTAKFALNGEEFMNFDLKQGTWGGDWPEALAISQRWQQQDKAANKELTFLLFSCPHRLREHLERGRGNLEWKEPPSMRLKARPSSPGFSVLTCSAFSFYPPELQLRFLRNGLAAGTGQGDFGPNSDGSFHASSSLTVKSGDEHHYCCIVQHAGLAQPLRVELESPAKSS
Method: The interaction of the unmodified and of conjugated anti-PD1 antibodies with the human neonatal Fc receptor (FcRn) at pH 6 was measured using the AlphaLISA® Human FcRn Binding Kit (AL3095C) from Perkin Elmer (Schwerzenbach, Switzerland).
After 90 min at 23° C. in the dark, AlphaLISA® signal was measured on an EnSpire plate reader (Excitation at 680 nm, Emission at 615 nm) from Perkin Elmer (Schwerzenbach, Switzerland).

[2] = molecular target: T2, recombinant Human Fc gamma RI/CD64 Protein (R&D systems, 1257-FC-050, CF) (human, UniProt P12314 16-288); test: ELISA; antibody coated on plate, recombinant receptor titrated
T2 construct: Bought protein; also called FcγRI; FcgRI
T2 sequence (P12314 16-288 limits assumed): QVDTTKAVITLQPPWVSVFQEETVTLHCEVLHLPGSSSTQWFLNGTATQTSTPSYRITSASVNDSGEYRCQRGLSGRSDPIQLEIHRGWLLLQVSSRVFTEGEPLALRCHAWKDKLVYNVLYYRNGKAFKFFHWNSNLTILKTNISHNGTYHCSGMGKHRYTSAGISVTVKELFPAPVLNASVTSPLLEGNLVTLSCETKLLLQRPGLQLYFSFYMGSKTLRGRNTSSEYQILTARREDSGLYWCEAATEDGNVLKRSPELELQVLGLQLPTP
Method: (§1) The interaction of the unmodified and of conjugated anti-PD1 antibodies with human Fc gamma receptors I (FcγRI/CD64), with human Fc gamma receptors Ha (FcγRIIa/CD32a), with inhibitory human Fc gamma receptors IIb (FcγRIIb/CD32b), and with human Fc gamma receptors III FcγR3a/CD16 were measured by ELISA. Briefly, Corning high-binding half-area plates (Fisher Scientific, Reinach, Switzerland) were coated overnight at 4° C. with 25 μl of unmodified and of conjugated anti-PD1 antibodies at 2.5 μg/ml in PBS. Plates were then washed four times with 100 μl of PBS-0.02% Tween20. Plates surfaces were blocked with 25 μl of PBS-0.02% Tween20-1% BSA at 37° C. during 1 h. Plates were then washed four times with 100 μl of PBS-0.02% Tween20. Then twenty-five microliters of either recombinant Human Fc gamma RI/CD64 Protein (R&D systems, 1257-FC-050, CF), recombinant Human Fc gamma RIIA/CD32a (H167) Protein (R&D systems, 9595-CD-050, CF), recombinant Human Fc gamma RIIB/CD32b Avi-tag Protein (R&D systems, AVI1875-050, CF), or recombinant Human Fc gamma RIIIA/CD16a Protein (R&D systems, 4325-FC-050; CF) were added in five-fold serial dilutions ranging from 1000 nM to 0.001 nM into PBS-0.02% Tween20-0.1% BSA and incubated at 37° C. during 2 h. […] ELISA signal was then measured at 450 nm on an EnSpire plate reader from Perkin Elmer (Schwerzenbach, Switzerland). […]

[3] = molecular target: T3, recombinant Human Fc gamma RIIIA/CD16a Protein (R&D systems, 4325-FC-050; CF) (human, UniProt P08637 17-208, limits assumed); test: as above
T3 construct: Bought protein; also called FcγRIIIa; FcgRIIIa
T3 sequence (P08637 17-208 limits assumed): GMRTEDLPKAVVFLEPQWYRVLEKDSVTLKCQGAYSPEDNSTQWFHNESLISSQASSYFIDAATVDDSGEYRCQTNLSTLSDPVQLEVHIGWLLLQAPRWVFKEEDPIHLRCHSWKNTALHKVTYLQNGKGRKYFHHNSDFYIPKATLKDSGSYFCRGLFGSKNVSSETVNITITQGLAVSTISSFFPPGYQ
Method: as §1

[4] = molecular target: T4, recombinant biotinylated PD1/CD279 protein from Biolegend (789406) (UniProt Q15116 25-167, limits assumed, biotinylated); test: ELISA; antibody coated on plate, biotinylated PD-1 titrated, streptavidin-HRP
T4 construct: also called PD1/CD279 ligand
T4 sequence (Q15116 25-167 limits assumed): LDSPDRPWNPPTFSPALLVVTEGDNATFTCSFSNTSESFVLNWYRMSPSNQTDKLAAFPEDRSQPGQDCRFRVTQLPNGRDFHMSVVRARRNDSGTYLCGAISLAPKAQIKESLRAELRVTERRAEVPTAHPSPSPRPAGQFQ
Method: The interaction of the unmodified and of conjugated anti-PD1 antibodies with PD-1 (CD279) were measured by ELISA assay. For these studies, Corning high-binding half-area plates (Fisher Scientific, Reinach, Switzerland) were coated overnight at 4° C. with 25 μl of unmodified or conjugated anti-PD1 antibodies at 2.5 μg/ml in PBS. Plates were then washed four times with 100 μl of PBS-0.02% Tween20. Plate surfaces were blocked with 25 μl of PBS-0.02% Tween20-1% BSA at 37° C. during 1 h. Plates were then washed four times with 100 μl of PBS-0.02% Tween20. […] Plates were then washed four times with 100 μl of PBS-0.02% Tween20. Twenty-five microliters of Streptavidin-Horseradish peroxidase (#RABHRP3, Merck, Buchs, Switzerland) diluted at 1:500 in PBS-0.02% Tween20-0.1% BSA were added to each well and incubated at Room Temperature during 30 min. Plates were then washed four times with 100 μl of PBS-0.02% Tween20. Fifty microliters of TMB substrate reagent (#CL07, Merck, Buchs, Switzerland) were added to each well and incubated at 37° C. during 5 min. After 5 min at 37° C., Horseradish peroxidase reaction was stopped by adding 50 μl/well of 0.5M H₂SO₄ stop solution. ELISA signal was then measured at 450 nm on an EnSpire plate reader from Perkin Elmer (Schwerzenbach, Switzerland).

Binder | Kd [1] [µM] | Kd [2] [µM] | Kd [3] [µM] | Kd [4] [µM]
B1 | 0.00731 | 0.000488 | 0.289 | –
B2 | – | – | – | 41
B3 | – | – | – | 37
B4 | – | – | – | 27
B5 | – | – | – | 35
